In publication doi:10.1101/684100 (bioRxiv, 2019):

Biological target: EDB (+)-fibronectin in murine tumor sections (Mus musculus, UniProt P11276)
Experiment: immunostaining of cells or tissue

Chain of EDB (+)-fibronectin in murine tumor sections (P11276 33-2477): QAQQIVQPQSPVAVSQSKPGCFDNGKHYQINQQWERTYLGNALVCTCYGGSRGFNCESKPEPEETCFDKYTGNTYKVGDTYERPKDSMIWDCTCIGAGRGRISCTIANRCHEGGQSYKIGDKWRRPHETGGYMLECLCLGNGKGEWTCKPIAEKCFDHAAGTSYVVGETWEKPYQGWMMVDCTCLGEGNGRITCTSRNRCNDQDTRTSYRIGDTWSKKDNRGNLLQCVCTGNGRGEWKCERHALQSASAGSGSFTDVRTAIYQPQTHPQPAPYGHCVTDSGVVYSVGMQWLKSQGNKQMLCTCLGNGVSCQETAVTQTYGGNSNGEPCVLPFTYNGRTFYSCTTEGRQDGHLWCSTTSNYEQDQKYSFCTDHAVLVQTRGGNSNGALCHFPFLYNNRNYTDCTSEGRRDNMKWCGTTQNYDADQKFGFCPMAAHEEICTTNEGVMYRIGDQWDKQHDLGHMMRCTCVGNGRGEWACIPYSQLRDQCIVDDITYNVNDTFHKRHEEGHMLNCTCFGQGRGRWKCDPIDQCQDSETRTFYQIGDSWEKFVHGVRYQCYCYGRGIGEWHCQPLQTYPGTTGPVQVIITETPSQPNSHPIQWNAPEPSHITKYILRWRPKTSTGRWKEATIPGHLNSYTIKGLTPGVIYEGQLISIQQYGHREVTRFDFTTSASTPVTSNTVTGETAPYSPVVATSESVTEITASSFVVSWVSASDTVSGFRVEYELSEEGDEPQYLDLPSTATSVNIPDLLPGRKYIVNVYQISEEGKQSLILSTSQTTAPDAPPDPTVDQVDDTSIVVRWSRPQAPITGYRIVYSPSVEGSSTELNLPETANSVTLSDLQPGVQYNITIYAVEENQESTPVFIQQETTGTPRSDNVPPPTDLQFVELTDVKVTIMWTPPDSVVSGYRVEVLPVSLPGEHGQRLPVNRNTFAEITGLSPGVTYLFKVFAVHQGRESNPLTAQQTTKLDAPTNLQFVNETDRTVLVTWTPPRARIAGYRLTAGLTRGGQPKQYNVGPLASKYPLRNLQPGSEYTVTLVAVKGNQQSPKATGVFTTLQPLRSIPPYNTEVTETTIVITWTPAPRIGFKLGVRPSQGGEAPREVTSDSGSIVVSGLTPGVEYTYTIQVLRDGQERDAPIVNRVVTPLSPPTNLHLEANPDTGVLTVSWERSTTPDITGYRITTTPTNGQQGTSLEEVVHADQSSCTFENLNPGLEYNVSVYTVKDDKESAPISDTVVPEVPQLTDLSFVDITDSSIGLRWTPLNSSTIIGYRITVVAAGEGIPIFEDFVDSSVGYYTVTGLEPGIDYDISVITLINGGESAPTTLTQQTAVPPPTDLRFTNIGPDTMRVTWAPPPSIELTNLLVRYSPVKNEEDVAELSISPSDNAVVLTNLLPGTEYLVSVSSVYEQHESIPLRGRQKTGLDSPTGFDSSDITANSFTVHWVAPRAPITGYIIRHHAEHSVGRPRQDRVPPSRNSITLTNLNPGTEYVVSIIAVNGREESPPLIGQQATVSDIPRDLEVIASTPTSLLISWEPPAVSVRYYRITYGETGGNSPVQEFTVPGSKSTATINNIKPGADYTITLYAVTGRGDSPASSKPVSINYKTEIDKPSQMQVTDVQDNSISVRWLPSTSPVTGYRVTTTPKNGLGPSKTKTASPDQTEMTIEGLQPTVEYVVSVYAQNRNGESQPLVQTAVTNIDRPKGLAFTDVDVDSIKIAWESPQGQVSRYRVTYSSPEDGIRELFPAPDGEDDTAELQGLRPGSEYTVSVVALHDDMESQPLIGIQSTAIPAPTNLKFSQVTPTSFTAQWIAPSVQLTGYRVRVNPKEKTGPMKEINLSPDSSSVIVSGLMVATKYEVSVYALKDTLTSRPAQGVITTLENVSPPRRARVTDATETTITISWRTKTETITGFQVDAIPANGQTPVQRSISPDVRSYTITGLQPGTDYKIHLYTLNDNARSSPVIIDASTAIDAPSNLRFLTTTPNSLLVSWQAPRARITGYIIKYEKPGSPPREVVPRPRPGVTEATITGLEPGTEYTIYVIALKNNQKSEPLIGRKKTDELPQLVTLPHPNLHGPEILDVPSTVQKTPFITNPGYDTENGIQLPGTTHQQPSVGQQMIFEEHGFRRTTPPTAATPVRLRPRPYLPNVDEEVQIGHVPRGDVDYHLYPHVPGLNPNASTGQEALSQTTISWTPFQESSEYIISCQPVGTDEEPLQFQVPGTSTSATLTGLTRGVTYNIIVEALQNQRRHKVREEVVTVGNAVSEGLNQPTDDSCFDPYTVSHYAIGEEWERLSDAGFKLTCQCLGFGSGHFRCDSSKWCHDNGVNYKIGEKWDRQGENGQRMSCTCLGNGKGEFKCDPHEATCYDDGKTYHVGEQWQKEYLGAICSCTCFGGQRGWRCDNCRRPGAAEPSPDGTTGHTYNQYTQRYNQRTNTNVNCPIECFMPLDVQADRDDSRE

- binding result: binds
B1: FITC-labeled L19 IgG1 (antibody, V domains shown)
VH: EVQLLESGGGLVQPGGSLRLSCAASGFTFSSFSMSWVRQAPGKGLEWVSSISGSSGTTYYADSVKGRFTISRDNSKNTLYLQMNSLRAEDTAVYYCAKPFPYFDYWGQGTLVTVSS
VL: EIVLTQSPGTLSLSPGERATLSCRASQSVSSSFLAWYQQKPGQAPRLLIYYASSRATGIPDRFSGSGSGTDFTLTISRLEPEDFAVYYCQQTGRIPPTFGQGTKVEIK
